The experiment deals with E2tag (tPA signal+E2(384-711)+tag; soluble E2/NS1 of HCV J1 clone with C-terminal E-tag) (hepatitis C virus (HCV J1 clone)). In words: SPR, BIACORE X; E2tag amine-coupled to CM5 chip, scFv1-1 injected in HBS buffer. In general terms: Surface plasmon resonance follows binding to a sensor surface in real time, without labels.

B1: single chain antibody scFv1-1 (scFv)
scFv: QVQLVQSGAEVKKPGSSVKVSCKASGGTYIDQPIGWVRQAPGQGLEWMGGIIPLSGPPHYAQKFQGKVSITADESTSTAYLELTSLTSEDTAVYYCARVLRGYCRRGSCYDWLDPWGQGTLVTVSSGGGGSGGGGSGGGGSALDIQMTQSPSSLSASVGDRVTITCQASQDISNYLNWYQQKPGKAPKLLLYATSRLYSGVPSRFSGSGSGTDFTLSISSLQPEDFATYYCQQTKSFPLTFGGGTKVEIKRAAAEQKLISEEDLGSRSTHHAHHHAA
B1: the Kd is 2.2 nM.

Usually Kd stands for the constant that tells how readily two partners part at equilibrium.
